Legend:
[1] = biological target: T1, Purified recombinant human CD26 (rhDipeptidyl peptidase IV), R&D Systems CAT #1180-SE (human, UniProt P27487 29-766); assay: SPR (Biacore)
T1 construct: Bought recombinant protein; also called hu-CD26; soluble human CD26

[2] = biological target: T1, Purified recombinant human CD26 …; assay: SPR (Biacore), Fab
[3] = biological target: T1, Purified recombinant human CD26 …; assay: SPR (Biacore), Fab; remark: listed apart in the source
Protocol: Fabs produced in E. coli as described below were diluted in PBS in a concentration of ˜0.5 μM for the assay. A typical recording included a 3 minute period of injection of the Fab followed by a period of 15 minutes of dissociation, and analysis was performed based on the raw data of the binding curves accordingly.

[4] = biological target: T1, Purified recombinant human CD26 …; assay: SPR (Biacore), Fab; remark: listed apart in the source
[5] = biological target: T1, Purified recombinant human CD26 …; assay: SPR (Biacore), CD26 preoccupied by the Fab; competitor 14D10 ascites
Source text: A specificity analysis of selected Fabs comprising pairs of variant VH and VL sequences was done. […] The analysis was done using Biacore® as described in Example 1.

T1 sequence (P27487 29-766 limits assumed): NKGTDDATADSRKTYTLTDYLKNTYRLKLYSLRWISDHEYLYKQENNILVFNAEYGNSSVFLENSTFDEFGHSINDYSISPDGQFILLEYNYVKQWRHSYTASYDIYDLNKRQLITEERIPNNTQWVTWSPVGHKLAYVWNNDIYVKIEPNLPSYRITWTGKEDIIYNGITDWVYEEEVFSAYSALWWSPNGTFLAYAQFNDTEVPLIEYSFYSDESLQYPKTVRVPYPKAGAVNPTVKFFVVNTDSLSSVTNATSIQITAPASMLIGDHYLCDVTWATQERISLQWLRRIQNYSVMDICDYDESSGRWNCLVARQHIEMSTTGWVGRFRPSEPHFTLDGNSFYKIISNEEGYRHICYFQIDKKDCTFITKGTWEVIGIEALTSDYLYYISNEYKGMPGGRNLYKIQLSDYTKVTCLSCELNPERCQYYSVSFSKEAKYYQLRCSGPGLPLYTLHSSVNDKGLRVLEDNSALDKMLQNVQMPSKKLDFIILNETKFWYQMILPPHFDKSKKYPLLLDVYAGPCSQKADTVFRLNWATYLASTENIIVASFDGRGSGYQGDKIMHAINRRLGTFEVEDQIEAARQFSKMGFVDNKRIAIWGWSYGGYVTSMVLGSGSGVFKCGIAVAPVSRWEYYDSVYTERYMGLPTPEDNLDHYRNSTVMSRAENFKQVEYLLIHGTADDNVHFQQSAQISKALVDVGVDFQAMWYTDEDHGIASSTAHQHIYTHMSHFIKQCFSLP

Kd [1]	Kd [2]	Kd [3]	koff [3]	kon [3]	Kd [4]	percent decrease in binding of 14D10 to CD26 [5]	ratio of the Kd of CM03 Fab to the Kd of individual clone [2]	Binder
1.63 nM								mouse monoclonal antibody CM03 (14D10) (antibody, V domains shown, Mouse monoclonal antibody; also called murine MAb CM03) VH: QVKLQESGPGLVQPSQTLSITCTVSGFSLTTYGVHWVRQSPGKGLEWLGVIWGGGRTDYDAAFISRLSISKDNSKSQVFFKMNSLQANDTAIYYCVRNRHDWFDYWGQGTTVTVSS VL: DIQMTQSPSSLSASLGDRVTITCSASQGIRNSLNWYQQKPDGAVKLLIYYSSNLHSGVPSRFSGSGSGTDFSLTISNLEPEDIATYYCQQSIKLPFTFGSGTKLEIK
	51 nM	51.1 nM	0.01 s⁻¹	196000 M⁻¹ s⁻¹				Fab comprising X387 VH and CM03 VL (Fab, V domains shown, Fab made in E. coli) VH: EVQLVESGAELVQPGGSLRLTCKASGFTLNTYGVHWVRQAPGKGLEWMGVIWGGGRTDYDASFMSRVTISKDNSKNTAYLQLNSLRAEDTAVYYCTRSRHDWFDYWGQGTTVTVSS VL: DIQMTQSPSSLSASLGDRVTITCSASQGIRNSLNWYQQKPDGAVKLLIYYSSNLHSGVPSRFSGSGSGTDFSLTISNLEPEDIATYYCQQSIKLPFTFGSGTKLEIK
	2.53 nM				2.53 nM	≥ 80%		Fab X396 (X385 VH and X380 VL) (Fab, V domains shown, Fab made in E. coli) VH: EVQLVQSGGGVKQPGETLRLTCTASGFSLTTYGVHWVRQAPGKGLEWVGVIWGDGRTDYDAAFMSRVTISKDTSKSTAYLQMNSLRAEDTAVYYCMRNRHDWFDYWGQGTTVTVSS VL: EIEMTQSPSSLSVSAGERATISCSASQDIRNSLNWYQQKPGQAPRLLIYYSSNLHTGVPARFSGSGSGTDFTLTISRLEPEDVAIYYCQQSNKLPLTFGSGTKVEIK
	0.96 nM				0.96 nM	≥ 80%	1.7	Fab X390 (X385 VH and X376 VL) (Fab, V domains shown, Fab made in E. coli) VH: EVQLVQSGGGVKQPGETLRLTCTASGFSLTTYGVHWVRQAPGKGLEWVGVIWGDGRTDYDAAFMSRVTISKDTSKSTAYLQMNSLRAEDTAVYYCMRNRHDWFDYWGQGTTVTVSS VL: DILMTQSPSSLSASPGDRVTISCRASQDIRNNLNWYQQKPGQAPRLLIYYSSNLHSGVPDRFSGSGSGTDFTLTISRLEPEDFAAYYCQQSIKLPLTFGSGTKVEIK
	0.33 nM				0.33 nM	≥ 80%	4.94	Fab X393 (X385 VH and X379 VL) (Fab, V domains shown, Fab made in E. coli) VH: EVQLVQSGGGVKQPGETLRLTCTASGFSLTTYGVHWVRQAPGKGLEWVGVIWGDGRTDYDAAFMSRVTISKDTSKSTAYLQMNSLRAEDTAVYYCMRNRHDWFDYWGQGTTVTVSS VL: DILLTQSPSSLSATPGERATITCRASQGIRNNLNWYQQKPGQAPRLLIYYSSNLQSGVPSRFSGSGSGTDFTLTISRLQPEDVAAYYCQQSIKLPFTFGSGTKVEIK
	0.24 nM				0.24 nM	≥ 80%	6.79	Fab X392 (X384 VH and X379 VL) (Fab, V domains shown, Fab made in E. coli) VH: EVQLVESGAGVKQPGGTLRLTCTASGFSLTTYGVHWVRQAPGKGLEWVGVIWGDGRTDYDAAFMSRVTISKDTSKSTVYLQMNSLRAEDTAVYYCMRNRHDWFDYWGQGTTVTVSS VL: DILLTQSPSSLSATPGERATITCRASQGIRNNLNWYQQKPGQAPRLLIYYSSNLQSGVPSRFSGSGSGTDFTLTISRLQPEDVAAYYCQQSIKLPFTFGSGTKVEIK
	2.12 nM				2.12 nM	≥ 80%		Fab X391 (X388 VH and X376 VL) (Fab, V domains shown, Fab made in E. coli) VH: EVQLVQSGGGLKQPGETLRLSCTASGYSLTTYGVHWVRQAPGKGLEWMGVIWGDGRTDYDSSFMSRVTISKDTSKSTAYLQLNSLRAEDTAVYYCTRNRHDWFDYWGQGTTVTVSS VL: DILMTQSPSSLSASPGDRVTISCRASQDIRNNLNWYQQKPGQAPRLLIYYSSNLHSGVPDRFSGSGSGTDFTLTISRLEPEDFAAYYCQQSIKLPLTFGSGTKVEIK
	1.19 nM				1.19 nM		1.37	Fab X430 (X399 VH and X394 VL) (Fab, V domains shown, also called Fab X429) VH: EVQLVQSGGGVKQPGETLRLTCTASGFSLSTYGVHWVRQAPGKGLEWVGVIWGDGRTDYDAAFMSRVTISKDTSKSTVYLQMNSLRAEDTAVYYCMRNRHDWFDYWGQGTTVTVSS VL: DILMTQSPSSLSASPGDRVTISCRASQDIRNNLNWYQQKPGQAPRLLIYYSSNLQTGVPARFSGSGSGTDFTLTISRLEPEDFAAYYCQQSIKLPLTFGSGTKVEIK
	0.38 nM				0.38 nM	≥ 80%	4.29	Fab X389 (X384 VH and X376 VL) (Fab, V domains shown, Fab made in E. coli) VH: EVQLVESGAGVKQPGGTLRLTCTASGFSLTTYGVHWVRQAPGKGLEWVGVIWGDGRTDYDAAFMSRVTISKDTSKSTVYLQMNSLRAEDTAVYYCMRNRHDWFDYWGQGTTVTVSS VL: DILMTQSPSSLSASPGDRVTISCRASQDIRNNLNWYQQKPGQAPRLLIYYSSNLHSGVPDRFSGSGSGTDFTLTISRLEPEDFAAYYCQQSIKLPLTFGSGTKVEIK
	0.58 nM				0.58 nM		2.81	Fab X394 (X384 VH and X394 VL) (Fab, V domains shown, Fab made in E. coli) VH: EVQLVESGAGVKQPGGTLRLTCTASGFSLTTYGVHWVRQAPGKGLEWVGVIWGDGRTDYDAAFMSRVTISKDTSKSTVYLQMNSLRAEDTAVYYCMRNRHDWFDYWGQGTTVTVSS VL: DILMTQSPSSLSASPGDRVTISCRASQDIRNNLNWYQQKPGQAPRLLIYYSSNLQTGVPARFSGSGSGTDFTLTISRLEPEDFAAYYCQQSIKLPLTFGSGTKVEIK
	3.26 nM				3.26 nM	≥ 80%	0.5	Fab X395 (X384 VH and X380 VL) (Fab, V domains shown, Fab made in E. coli) VH: EVQLVESGAGVKQPGGTLRLTCTASGFSLTTYGVHWVRQAPGKGLEWVGVIWGDGRTDYDAAFMSRVTISKDTSKSTVYLQMNSLRAEDTAVYYCMRNRHDWFDYWGQGTTVTVSS VL: EIEMTQSPSSLSVSAGERATISCSASQDIRNSLNWYQQKPGQAPRLLIYYSSNLHTGVPARFSGSGSGTDFTLTISRLEPEDVAIYYCQQSNKLPLTFGSGTKVEIK
	3 nM	2.98 nM	0.000698 s⁻¹	235000 M⁻¹ s⁻¹				Fab comprising X388 VH and CM03 VL (Fab, V domains shown, Fab made in E. coli) VH: EVQLVQSGGGLKQPGETLRLSCTASGYSLTTYGVHWVRQAPGKGLEWMGVIWGDGRTDYDSSFMSRVTISKDTSKSTAYLQLNSLRAEDTAVYYCTRNRHDWFDYWGQGTTVTVSS VL: DIQMTQSPSSLSASLGDRVTITCSASQGIRNSLNWYQQKPDGAVKLLIYYSSNLHSGVPSRFSGSGSGTDFSLTISNLEPEDIATYYCQQSIKLPFTFGSGTKLEIK
	0.92 nM				0.92 nM			Fab X431 (X420 VH and X380 VL) (Fab, V domains shown, also called Fab X420) VH: EVQLVESGGGVKQPGETLRLTCTASGFSLSTYGVHWVRQAPGKGLEWVGVIWGDGRTDYDAAFMSRVTISKDTSKSTVYLQMNSLRAEDTAVYYCMRNRHDWFDYWGQGTTVTVSS VL: EIEMTQSPSSLSVSAGERATISCSASQDIRNSLNWYQQKPGQAPRLLIYYSSNLHTGVPARFSGSGSGTDFTLTISRLEPEDVAIYYCQQSNKLPLTFGSGTKVEIK
	2.85 nM				2.85 nM			Fab X399 (X399 VH and X380 VL) (Fab, V domains shown, Fab made in E. coli) VH: EVQLVQSGGGVKQPGETLRLTCTASGFSLSTYGVHWVRQAPGKGLEWVGVIWGDGRTDYDAAFMSRVTISKDTSKSTVYLQMNSLRAEDTAVYYCMRNRHDWFDYWGQGTTVTVSS VL: EIEMTQSPSSLSVSAGERATISCSASQDIRNSLNWYQQKPGQAPRLLIYYSSNLHTGVPARFSGSGSGTDFTLTISRLEPEDVAIYYCQQSNKLPLTFGSGTKVEIK

Source: patent publication US20070105771A1 (Y S THERAPEUTICS, published 2007)
